In the DeepSol protein solubility set:

Assay: soluble on expression in E. coli; label from the status in PepcDB or PDB records
With “MSLSTQTVTIKSLGAQGDGIAHCPDGPVYVPFALPGETVAIAKVKDQGTVMSITEASADRRDPVCRHFGPEGINGTCGGCSLQHLADQPYHAFKRELVVSALRSKGLTPPVDDLVICRPGERRRAVFAARKTEKGLLLGFSQANSHHIVAIEECPVTSPGIVSRFDAIRAIGLSMVANAEPFRITVLETLSGLDISVEGIKSVNDKQRRTLTETVLAMRGIARVSLSGEILIEPQKPIIEFGGIPVSPPAGGFTQATKQAEDAMAELMLAHVGKSKRIADLFCGSGTFALRLARIGRVHAVEAEDKALKALDFAARNTQGLKPVSVEKRDLFRRPLMTSELKNYDAVVFDPPRAGAEVQCKELARSTVKKIVAVSCNPLTLARDLAILTEGGYRVTRVTPVDQFLWSPHVEAVAVLEKEGHHHHHH” the “soluble on expression in E. coli” value was “soluble”.
In the case of “MAHHHHHHMLRCSMLRRSMGPGASYVNTVFDTVAKRYDLMNDLLSLGIHRRWKQHFVNDYVRPCPGGKFLDVAGGTGDIAFRIIDGVRLKEEVFGLVPTLRYLTEVVVLDANENMIREGEARAAREGYLDVKWVIGKGEELPFDDMSFDSYTVSFGIRNFSDRPKALREAYRVLKVGGVLNVLEFSKVTCPFLSLPYDVWSYGFIPMAGQILVDRESYQYLVDSIRAFPDQEEFAKMISDAGFGYVRYENLTGGIACIHTAVKTEAVRVKPEKSPLESVATKAKEEKNSVDDEQLNPA”, the “soluble on expression in E. coli” value is reported as “not soluble”.
For “MATSKLQALWNHPAGPKTIHFWAPTFKWGISIANIADFQKPPENISYLQQIAVTCTGMIWCRCSTIITPKNWNLFSVNVAMAATGIYQLTRKIKYDYVSEAEAAVEIEG”, the “soluble on expression in E. coli” value was “not soluble”.
With “MAHHHHHHMSTRTILTAGEAAEVLASVRYVLLDVDGVLWAGKHVLPNIPETLLYLRLREKQIRFLTNNASISRAGLVREFQRRGIQGVREGEVYNSGFAAALRLQSLFTANKSTGSGRPLVERNIFVIGEEGLHEELRRVLAPGYIAYGMELHDAEKCGGYDAHVVASAWKQRVLPAPLQSSATSCGIAATGHAAGGISISDLSPAAVVVGLDMHFNMLKLAYASLCLQERPAAQTAGTSSSTPTYFIATNEDPQIPVGEDFLLLPGAGGMVSALRTVSGRSPDFVCGKPHVDMAKVFFEAEGITDPQQCLMVGDRLTTDIAFGNAAGCKTMLVLSGAEKMDRVRQAERDGHVSLLPDFIAPSLAIFLPPA” the “soluble on expression in E. coli” value was “soluble”.
With “MSLDQAIRRNPNVPVVVRGWLHKQDSSGMRLWKRRWFVLADYCLFYYKDSREEAVLGSIPLPSYVISPVAPEDRISRKYSFKAVHTGMRALIYNSSTAGSQAEQSGMRTYYFSADTQEDMNAWVRAMNQAAQVLSRSSLKRDMEKVERQAVPQANHTEGHHHHHH” the “soluble on expression in E. coli” value was “soluble”.
In the case of “MGSDKIHHHHHHMTLPPPRPPALCRGVVGLPLETQIDLTASNLAAVADLAAQYGLLIYLEALSWTPLNTIDRQLRTIEIANRDNIRLVIDFWHCYTSGDTPKHIARLHKDIIYGVHICDSLAYAGGVPDENMLRDVPTGNGVLNLKEWVDAVKSTGYDGWWSCELFCRRQHQENSYDVARSLNALMRDLVGA”, the “soluble on expression in E. coli” value is reported as “not soluble”.
For “MEHDERTHVPVELRAAGVVLLNERGDILLVQEKGIPGHPEKAGLWHIPSGAVEDGENPQDAAVREACEETGLRVRPVKFLGAYLGRFPDGVLILRHVWLAEPEPGQTLAPAFTDEIAEASFVSREDFAQLYAAGQIRMYQTKLFYADALREKGFPALPV”, the “soluble on expression in E. coli” value was “soluble”.
In the case of “MNGSKENAMKIDLNSDMGEGFGPYRLCDDEAMMKIVSSANIACGFHGGDPDTMARMVRLAKANGVGIGAHPGLPDRAGFGRREIPFQPDELRQQMLYQLGALMAIAGAEGMKVGHFSFHAAMGNMVNRDPVLADLMMNAIATVDPRLVVFVTPESEIERAAKRAGLKTLALFLADRAYDAEGRLVARGLPGALVKDETSVRARVRRFLTHGQVEAIDGTIIAMPAHSILVHSDTPGSLELARIIRSEIEASGATLAPAAEHAALEHHHHHH”, the “soluble on expression in E. coli” value is reported as “soluble”.
In the case of “MGSSHHHHHHSSGLVPRGSHMEFKVIAEYFDKLEKISSRLQLTALLADLLSKSDKTIIDKVVYIIQGKLWPDFLGYPELGIGEKFLIKAISIATNTDENSVENLYKTIGDLGEVARRLKSKQQSTGILGFLGTTSKESLTVDEVYSTLSKVALTTGEGSRDLKIRLLAGLLKKADPLEAKFLVRFVEGRLRVGIGDATVLDAMAIAFGGGQSASEIIERAYNLRADLGNIAKIIVEKGIEALKTLKPQVGIPIRPMLAERLSNPEEILKKMGGNAIVDYKYDGERAQIHKKEDKIFIFSRRLENITSQYPDVVDYVSKYIEGKEFIIEGEIVAIDPESGEMRPFQELMHRKRKSDIYEAIKEYPVNVFLFDLMYYEDVDYTTKPLEARRKLLESIVKPNDYVKIAHHIQANNVEDLKSFFYRAISEGGEGVMVKAIGKDAIYQAGARGWLWIKLKRDYQSEMADTVDLVVVGGFYGKGKRGGKISSLLMAAYNPKTDSFESVCKVASGFSDEQLDELQKKLMEIKRDVKHPRVNSKMEPDIWVEPVYVAEIIGSEITISPLHTCCQDVVEKDAGLSIRFPRFIRWRDDKSPEDATTTDEILEMYNKQPKKKIESPAVDESV”, the “soluble on expression in E. coli” value is reported as “soluble”.
With “MGSDKIHHHHHHMNPLETLWQLAANSVKADVLHLALEQQIFDRLEDVTAPEQLAESLGWQPEKTGFLLEILWSMQLLTRHHGGYRTASASSAVLCRSSPRFLGDAWRFRLTSLRQFGQGLADGMHQPLPAQLSELPRDAAWASAAEQQIAQEQRSITADLADQLLSRLPDFPQIRHVLDLGGGPGWVAITLALRHAQISGTIYDLPQTAAVAQRNINAAGLSARLSAQSGAFPSEKYDLIWSSSFLHFVEDIPAMLSTLYNTLTPDGSLVLAQAEIPEEADDAAPILPFYLPMQISGRHVTQEGQLTQWLVEAGFTSVETRRHQAFPMAPLNVLIARKHR” the “soluble on expression in E. coli” value was “not soluble”.
For “MAKTLYEKLFDAHVVYEAENETPLLYIDRHLVHEVTSPQAFDGLRAHGRPVRQPGKTFATMDHNVSTQTKDINACGEMARIQMQELIKNCKEFGVELYDLNHPYQGIVHVMGPEQGVTLPGMTIVCGDSHTATHGAFGALAFGIGTSEVEHVLATQTLKQGRAKTMKIEVQGKAAPGITAKDIVLAIIGKTGSAGGTGHVVEFCGEAIRDLSMEGRMTLCNMAIEMGAKAGLVAPDETTFNYVKGRLHAPKGKDFDDAVAYWKTLQTDEGATFDTVVTLQAEEISPQVTWGTNPGQVISVNDNIPDPASFADPVERASAEKALAYMGLKPGIPLTEVAIDKVFIGSCTNSRIEDLRAAAEIAKGRKVAPGVQALVVPGSGPVKAQAEAEGLDKIFIEAGFEWRLPGCSMCLAMNNDRLNPGERCASTSNRNFEGRQGRGGRTHLVSPAMAAAAAVTGHFADIRNIK”, the “soluble on expression in E. coli” value was “soluble”.
In the case of “MAHHHHHHMSVPLRRTVLHSLHLSRKARMGPFAGYDMPIHYQPGVVQEHLHTRQAAGLFDVSHVGFFEVWGADRHKFFEWVTPSGVTELQDGQSALTLFMNESGGVKDDCIVSKYSDHLLAVINAGCKGKIITHLKDRLAEFKGDATLVELDRAMVSLQGPKAASVMAPFVEELDRVKFMWGRRSVCVKGIDITLTRCSYSGEDGFDIIVPIQDAVQFVELLLQNPDVQLAGLGARDSLRTEAGLCLYSHELSEEVNPVAARLMWCIPKRRMAEGGFIGHERLQTFVQRAKELVPRLRMGILSVARGPVARTGMPILVGDVVVGEVTSGVPSPTLSRNIAIGYIDRAKARAGETVELEVRGKRLPGEVTLPRFVPQRYYKG”, the “soluble on expression in E. coli” value is reported as “not soluble”.
In the case of “MGSDKIHHHHHHMEKLNFGIPEWAFEFHGHKCPYMPMGYRAGSYALKIAGLEKEKDHRTYLLSEMSPEDMNGCFNDGAQAATGCTYGKGLFSLLGYGKLALILYRPGRKAIRVHVRNSFMDELSTRASDFFRYRKQGYEPSEIPAGAIDPVLEWISSLEDEEIFEYREIDGFTFEPVKKNGAKVRCDVCGEYTYEADAKLLNGKPVCKPDYYGKK”, the “soluble on expression in E. coli” value is reported as “not soluble”.
For “TKDFSWRTSLNFAYNKNKIVDLQYKENLTSRGLSLAGMSGDYSNLWIIGQPIDINYNLMTLGVWQLDEAEEAAKYGCKPGQYKPLDLNEDGVIDDKDRVIDGKRTPDWTGGMTNTFTYKEFDLSFQAAFQAGARARNQFYVSYALENNNLNFNNLRKDYWTPENPTNASAQPSNMGTYRSKAGSWGNAKSEMSHTMFSSNFLKISYITLGYTFKPSVLEKMKLGNLRLYATVQNPFIFCAKDVVDPEQLNVSINTSDAMTRNVIFGINLSFK”, the “soluble on expression in E. coli” value was “not soluble”.
In the case of “MKNLVGRFMRYVTFDTQSKPKNHHCPSSTGQKVFAQALYEELLELGLSDVSLDDHGYVMAKLPSNVNYPVPAIGFIAHMDTSPDACGKHVKPQIVEDYQGGDIALGKGDEVLSPIQYPDLHLLHGYNLITTDGTTLLGADNKAGIAEIITAMEILLADPSIPHGDISIAFTPDEEIGRGANHFDVAKFAAQWAYTIDGGPIGELEYENFNAATATVVCHGVNVHPGTAKDKMVNAMHIAAQFILMMPENETPQHTEGYQGFYHLSGATMSVAKSELKYILRDFEAIGLQARQALMQAKVAELNQQLKKGRVEVSFEQSYSNMKEKVEPHPHIIELAKQAMVACDVEPKIKPIRGGTDGARLSFMGLPCPNIFTGGYNFHGIHEFITIEGMEAAVQVIVKLAEKTALHYRQ”, the “soluble on expression in E. coli” value is reported as “not soluble”.
With “AAISLDEQWRMIKENQLMMIAHGIASPRLPEASNLWLISLKLWSCESEIIDEQTFRRSFSDPALSHALDQRVCHDFFQQAAKAVASKGLSIALPLSVAGLSSATLVNELLEQLENSPLPARLLHLIIPAEAIFDHAESVQKLRLAGCRIVFSQVGRDLQIFNSLKANMADYLLLDGELCANVQGNLMDEMLITIIQGHAQRLGMKTIAGPVVLPLVMDTLSGIGVDLIYGDVIANAQPLDLLVNRSYFAIN” the “soluble on expression in E. coli” value was “not soluble”.
With “MRVVLAPMEGVLDYRMRDLLTQVGSYDLCVTEFIRVVDQVLPDRVFHRYCPELIDADVYGSCTKAGTPVRVQLLGQYPEYMAENAAKVIELGSSGIDLNFGCPSKTVNKSRGGSILLKDPENLYQIIKAVKEAVPSDTIVSAKIRLGYEDKTLAIENGQAVEAAGANELTIHARTKLEGYKPPAHWHWIAKVKNAINIPVIANGEIWNLEDAIKCREISGCTDLMVGRGALTIPNLGQVIKQESDNMPWLEVRAILSAYTEFETHGDKSKYYCNRIKQWLKYLKSHYKEADVLFDEIRRLKTAEGIRAAL” the “soluble on expression in E. coli” value was “not soluble”.
In the case of “MGSDKIHHHHHHMRVILAQPRGFCAGVVRAIEIVDRALQQHGAPVYVRHEIVHNRHVVDNLRQKGARFVEELDEVPQGAVAIFSAHGVAQTVERDAEARGLDVLDATCPLVTKVHVQGRQYVGAGRTLILIGHAGHPEVEGTVGQIPGKVLLVQSEAEVENLDLPLDTPLAYVTQTTLSVDDTRGIIDALLSRFTDIVGPDTRDICYATQNRQAAVRELSKQVDVLLVVGATNSSNSNRLREIGSESGVASYLVADGSEVKPEWFANVQTVGITAGASAPEEMVKNVIDALSALGPVDVTTMAGREEKVEFKLPSKLMQPLAAREV”, the “soluble on expression in E. coli” value is reported as “not soluble”.
In the case of “MDNKVILVGGFHEIIELCEDNDIEIAGIIDNYLTNDTYWGYPIIGTDDKAKVLFETYKNVPVLITPDVPHVRYKLYHYYKSIGFQVASLISRDASISRSAIIGEGTIIQRGANLSSNIKIGQMVKVNTNANIMHDCLIGNYVTVAPNAVLLGKVEIDDKAYIGANATLLPSVKIGENVTVGAGSVVTKSVRPNTVVKGSPLEHHHHHH”, the “soluble on expression in E. coli” value is reported as “soluble”.
For “MSLIKITIGICEYPSVLKSAVYGFEEMFLLANRICKEQNIEVVFEPILIPHTGLTAERLTVVLLPPASLDNYYLAPDDALIRWLKAHYSQGTVLSSACAGVFILAATNLIDSREVTTHWALAETFSQAFPSIALDSNKILINHGDIVTAGGMMSWLDLGFELIAKYASPGVVRQLGKTLVIDTAQRAQSYYQQFHPSFSHGDYAIVSIQQIMHQRYAEPLSIKQLAKQANLTERTMQRRFLKATGYNPNQYLQRLRIQSACHLLESTQHSFDSISHQVGYEDTSACRKVFINVIGLTPREFRKRFAEGHHHHHH”, the “soluble on expression in E. coli” value was “soluble”.
